Data from patent US20240376151A1, “STAPLED PEPTIDES AND METHODS THEREOF” (FOG PHARMACEUTICALS, INC., priority 2022, published 2024).
Ends that are not written are not given here.

Molecular target: T1, RNF31 PUB domain (Homo sapiens, UniProt Q96EP0)
T1 construct: MBP-TEV (N, cleaved yes); made in house; host or cells: E. coli BL21 (DE3) pLysS
T1 sequence (Q96EP0 1-179): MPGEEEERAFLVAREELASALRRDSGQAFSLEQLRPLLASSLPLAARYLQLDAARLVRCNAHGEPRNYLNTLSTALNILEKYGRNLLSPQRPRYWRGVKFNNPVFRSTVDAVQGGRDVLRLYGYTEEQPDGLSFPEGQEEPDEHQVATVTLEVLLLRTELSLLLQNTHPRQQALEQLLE
Experiment: Phage Library Screening with NGS, RNF31 PUB domain
Format: binding
Details: for Phage library screen NGS readout, Target Concentration 10 / Phage library screen NGS readout, Target Concentration 30 / Phage library screen NGS readout, Target Concentration 100 / Phage library screen NGS readout, Target Concentration 300 / Phage library screen NGS readout, Target Concentration 1000: RNF31 PUB domain clusters C41-C45; for Phage library screen NGS readout, BLANK: clusters C41-C45

[1] = target concentration 1000, first column
[2] = target concentration 1000, second column

Sequence	Phage library screen NGS readout, Target Concentration 10	Phage library screen NGS readout, Target Concentration 30	Phage library screen NGS readout, Target Concentration 100	Phage library screen NGS readout, Target Concentration 300	Phage library screen NGS readout, Target Concentration 1000 [1]	Phage library screen NGS readout, Target Concentration 1000 [2]	Phage library screen NGS readout, BLANK (column 1 of 5)	Phage library screen NGS readout, BLANK (column 2 of 5)	Phage library screen NGS readout, BLANK (column 3 of 5)	Phage library screen NGS readout, BLANK (column 4 of 5)	Phage library screen NGS readout, BLANK (column 5 of 5)
DPAIDACYDAAVMCTYV	0	0	0	6	27	15	0	0	0	0	4
DPALEDCQWAALYCDEY	0	0	1	2	7	9	1	1	1	0	0
DPAEDECQDAAILCSYN	1	3	0	7	19	6	1	0	0	0	1
DPARRECWDAAILCTYY	0	0	1	12	40	44	0	0	1	0	0
DPAYDWCMYAAHECVDQ	0	0	0	3	3	8	0	0	0	1	0
DPAWWDCMYAASHCDTV	0	0	0	3	12	2	2	0	0	0	0
DPAQYQCDIAAQVCSTY	0	0	0	4	12	10	0	0	0	0	0
DPAYEDCADAAMYCDMD	0	0	0	0	11	10	1	0	0	0	0
DPAQEACWDAAIMCTYR	0	0	0	29	56	80	0	0	0	0	0
DPAYWDCLYAAWSCDIL	0	1	0	4	9	7	1	1	1	0	0
DPAWQECVIAALVCDTY	0	0	0	3	13	8	0	0	1	4	0
DPAADQCDIAAFVCSTY	0	0	0	4	26	17	0	0	0	0	0
DPAIRECMLAALVCSTY	0	1	3	10	42	49	0	0	0	1	0
DPASEWCLDAAVLCTYS	0	0	3	18	63	65	2	0	0	0	0
DPAEDECDWAALYCDMQ	0	0	0	1	7	6	0	0	0	0	0
DPALWDCLYAADACITS (not fully specified; cysteine pairing not given here)	0	1	0	4	8	12	0	2	1	0	0
DPAFHDCQFAAAVCSTY	0	0	0	3	26	26	0	0	0	0	0
DPAHDWCLYAAYDCRVY	0	0	1	2	15	8	0	0	0	0	0
